Kd data for 4 molecules are collected here from patent publication US20230174655A1 (published 2023).

The target in test [1] is T1, FcγRIIb extracellular domain with C-terminal His tag (human, UniProt P31994 43-217).
T1 construct: extracellular domain; also called FcRIIb; FcgRIIb; not shown: His tag at the C terminus
T1 sequence (looked up): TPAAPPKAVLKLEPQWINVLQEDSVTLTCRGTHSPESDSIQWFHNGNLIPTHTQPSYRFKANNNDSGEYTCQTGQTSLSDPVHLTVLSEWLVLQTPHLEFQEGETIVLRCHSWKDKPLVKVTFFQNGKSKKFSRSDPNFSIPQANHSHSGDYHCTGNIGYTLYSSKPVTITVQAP
The test is described as follows: SPR (Biacore), antibody captured, FcgR analyte. The source says:
(§1) In the table, SEQ ID NO refers to the SEQ ID NO of the H chain of the evaluated variant, and alteration refers to the alteration introduced into IL6R-B3 (SEQ ID NO: 40). […] Furthermore, KD(IIaR)/KD(IIb) and KD(IIaH)/KD(IIb) in the table respectively represent the value obtained by dividing the KD value of each variant for FcγRIIaR by the KD value of each variant for FcγRIIb, and the value obtained by dividing the KD value of each variant for FcγRIIaH by the KD value of each variant for FcγRIIb. KD(IIb) of the parent polypeptide/KD(IIb) of the altered polypeptide refers to the value obtained by dividing the KD value of the parent polypeptide for FcγRIIb by the KD value of each variant for FcγRIIb.
(§2) Kinetic analyses for calculating the KD values of each altered antibody for FcγR were performed according to the following method. First, antibodies of interest were captured onto the above-mentioned sensor chips, and an Fcγ receptor diluted with the running buffer was allowed to interact. The Biacore™ Evaluation Software was used to globally fit the measured results to the obtained sensorgram using the 1:1 Langmuir binding model, and the association rate constant ka (L/mol/s) and the dissociation rate constant kd (1/s) were calculated; and from those values the dissociation constants KD (mol/L) were calculated.

Test [2] has as its target T2, FcγRIIa type R extracellular domain with C-terminal His tag (human, UniProt P12318 34-217).
T2 chain: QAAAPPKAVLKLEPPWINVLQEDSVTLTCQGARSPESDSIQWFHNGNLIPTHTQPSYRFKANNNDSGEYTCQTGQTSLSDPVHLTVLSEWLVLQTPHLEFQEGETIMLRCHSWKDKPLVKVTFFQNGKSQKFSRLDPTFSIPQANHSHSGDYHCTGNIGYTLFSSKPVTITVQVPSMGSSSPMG
The test is described as follows: SPR (Biacore), antibody captured, FcgR analyte.
From the text: as §1, §2
(In general: In SPR one partner is held on a chip, and binding of the other changes the refractive index at the surface.)

Test [3] addresses T3, FcγRIIIa type V extracellular domain with C-terminal His tag (human, UniProt P08637 17-208).
T3 construct: extracellular domain; also called FcIIIaV; FcgRIIIaV; not shown: His tag at the C terminus
Briefly: SPR (Biacore), antibody captured, FcgR analyte.
From the text: as §1, §2

For test [4], the target named is FcγRIIa type R extracellular domain with C-terminal His tag (human, UniProt P12318 34-217). The test is described as follows: SPR (Biacore), antibody captured on chip, FcγR extracellular domain as analyte.
From the text: as §1, §2

In test [5] the target is T4, FcγRIIa type R extracellular domain with C-terminal His tag (human, UniProt P12318 34-217).
T4 construct: extracellular domain; also called FcγRIIa R; FcγRIIaR
T4 sequence (looked up): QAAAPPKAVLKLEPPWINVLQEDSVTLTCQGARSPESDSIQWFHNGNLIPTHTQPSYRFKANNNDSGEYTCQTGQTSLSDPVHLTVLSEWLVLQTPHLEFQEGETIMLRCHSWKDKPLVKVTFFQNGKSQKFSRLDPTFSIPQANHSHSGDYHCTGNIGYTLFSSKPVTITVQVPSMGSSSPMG
Briefly: SPR (Biacore), Reference Example 2.
From the text: (§3) Furthermore, KD(IIaR)/KD(IIb) and KD(IIaH)/KD(IIb) in the table respectively show the value obtained by dividing the KD value of each variant for FcγRIIaR by the KD value of each variant for FcγRIIb, and the value obtained by dividing the KD value of each variant for FcγRIIaH by the KD value of each variant for FcγRIIb. KD(IIb) of the parent polypeptide/KD(IIb) of the altered polypeptide refers to a value obtained by dividing the KD value of the parent polypeptide for FcγRIIb by the KD value of each variant for FcγRIIb.
as §2

The target in test [6] is T5, FcγRIIb extracellular domain with C-terminal His tag (human, UniProt P31994 43-217).
T5 construct: extracellular domain; also called FcgRIIb; FcγRIIb extracellular region
T5 sequence (looked up): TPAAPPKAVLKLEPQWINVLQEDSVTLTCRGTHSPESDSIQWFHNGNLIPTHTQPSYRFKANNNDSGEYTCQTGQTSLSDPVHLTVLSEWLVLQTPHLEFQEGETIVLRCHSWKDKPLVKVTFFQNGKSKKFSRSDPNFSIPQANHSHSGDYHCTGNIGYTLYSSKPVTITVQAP
The test is described as follows: SPR (Biacore), Reference Example 2.
From the text: as §3, §2

What is called Kd is the free concentration of one partner at which half of the binding sites on the other are occupied at equilibrium, for simple one-to-one binding.

T3 sequence (P08637 17-208 F176V): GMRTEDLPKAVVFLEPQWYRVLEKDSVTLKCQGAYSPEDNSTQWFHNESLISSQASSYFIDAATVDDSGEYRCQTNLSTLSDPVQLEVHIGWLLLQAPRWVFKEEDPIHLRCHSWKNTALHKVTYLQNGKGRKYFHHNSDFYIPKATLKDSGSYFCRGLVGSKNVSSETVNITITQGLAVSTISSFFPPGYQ

B1: IL6R-BF195/IL6R-L (antibody, human IgG1, kappa)
heavy: QVQLQESGPGLVKPSETLSLTCAVSGHSISHDHAWSWVRQPPGEGLEWIGFISYSGITNYNPSLQGRVTISRDNSKNTLYLQMNSLRAEDTAVYYCARSLARTTAMDYWGEGTLVTVSSASTKGPSVFPLAPSSKSTSGGTAALGCLVKDYFPEPVTVSWNSGALTSGVHTFPAVLQSSGLYSLSSVVTVPSSSLGTQTYICNVNHKPSNTKVDKKVEPKSCDKTHTCPPCPAPDYLGDDSVFLFPPKPKDTLMISRTPEVTCVVVDVSDEDGEVKFNWYVDGVEVHNAKTKPREEQDNSTYRVVSVLTVLHQDWLNGKEYKCKVSNAALPKPIEKTISKAKGQPREPQVYTLPPSRDELTKNQVSLTCLVKGFYPSDIAVEWESNGQPENNYKTTPPVLDSDGSFFLYSKLTVDKSRWQQGNVFSCSVMHEALHNHYTQESLSLSP
light: not shown
notes: copies: 2 + 2
As to B1, the dissociation constant (Kd) in test [1] is 50 µM; in test [2], 0.91 µM; in test [3] it was 3.1 µM.

B2: IL6R-BF212/IL6R-L (antibody, human IgG1, kappa)
heavy: QVQLQESGPGLVKPSETLSLTCAVSGHSISHDHAWSWVRQPPGEGLEWIGFISYSGITNYNPSLQGRVTISRDNSKNTLYLQMNSLRAEDTAVYYCARSLARTTAMDYWGEGTLVTVSSASTKGPSVFPLAPSSKSTSGGTAALGCLVKDYFPEPVTVSWNSGALTSGVHTFPAVLQSSGLYSLSSVVTVPSSSLGTQTYICNVNHKPSNTKVDKKVEPKSCDKTHTCPPCPAPDLLGGDSVFLFPPKPKDTLMISRTPEVTCVVVDVSDEDGEVKFNWYVDGVEVHNAKTKPREEQDNSTYRVVSVLTVLHQDWLNGKEYKCKVSNKALPRPIEKTISKAKGQPREPQVYTLPPSRDELTKNQVSLTCLVKGFYPSDIAVEWESNGQPENNYKTTPPVLDSDGSFFLYSKLTVDKSRWQQGNVFSCSVMHEALHNHYTQESLSLSP
light: not shown
notes: Anti-IL-6 receptor IgG1 Fc variant; 'B233D' is read as E233D
Take B2: the Kd in test [4] amounted to 0.035 µM.

B3: IL6R-BF209/IL6R-L (antibody, human IgG1, kappa)
heavy: QVQLQESGPGLVKPSETLSLTCAVSGHSISHDHAWSWVRQPPGEGLEWIGFISYSGITNYNPSLQGRVTISRDNSKNTLYLQMNSLRAEDTAVYYCARSLARTTAMDYWGEGTLVTVSSASTKGPSVFPLAPSSKSTSGGTAALGCLVKDYFPEPVTVSWNSGALTSGVHTFPAVLQSSGLYSLSSVVTVPSSSLGTQTYICNVNHKPSNTKVDKKVEPKSCDKTHTCPPCPAPELLGDDSVFLFPPKPKDTLMISRTPEVTCVVVDVSDEDGEVKFNWYVDGVEVHNAKTKPREEQYNSTYRVVSVLTVLHQDWLNGKEYKCKVSNAALPRPIEKTISKAKGQPREPQVYTLPPSRDELTKNQVSLTCLVKGFYPSDIAVEWESNGQPENNYKTTPPVLDSDGSFFLYSKLTVDKSRWQQGNVFSCSVMHEALHNHYTQESLSLSP
light: not shown
notes: Anti-IL-6 receptor IgG1 Fc variant
B3 came in with a Kd in test [4] of 12 µM.

B4: IL6R-PD042/IL6R-L (antibody, human IgG1, kappa)
heavy: QVQLQESGPGLVKPSETLSLTCAVSGHSISHDHAWSWVRQPPGEGLEWIGFISYSGITNYNPSLQGRVTISRDNSKNTLYLQMNSLRAEDTAVYYCARSLARTTAMDYWGEGTLVTVSSASTKGPSVFPLAPSSKSTSGGTAALGCLVKDYFPEPVTVSWNSGALTSGVHTFPAVLQSSGLYSLSSVVTVPSSSLGTQTYICNVNHKPSNTKVDKKVEPKSCDKTHTCPPCPAPEWLGGDSVFLFPPKPKDTLYISRTPEVTCVVVDVSHEDPEVKFNWYVDGVEVHNAKTKPREEQYNSTYRVVSVLTVLHQDWLNGKEYKCKVSNKALPAPIEKTISKAKGQPREPQVYTLPPSRDELTKNQVSLTCLVKGFYPSDIAVEWESNGQPENNYKTTPPVLDSDGSFFLYSKLTVDKSRWQQGNVFSCSVMHEALHYHYTQKSLSLSP
light: not shown
notes: H chain: IL6R-F11 with P238D/L234W (EU numbering); also called P238D/L234W; copies: 2 + 2
As for B4, the equilibrium dissociation constant (Kd) in test [5] amounted to 16 µM; in test [6] it was 20 µM.
